From patent US20060045883A1 (published 2006) come the findings set out here.

One test has as its target T1, HLA-A2.1 heavy chain with I125-labeled beta2-microglobulin (heterotrimer dissociation assay) (human, I^125-labeled).
T1 construct: T1/2 is the half-time of dissociation of labeled beta2-microglobulin from the heavy chain/peptide/beta2-microglobulin complex; also called HLA-A2.1 heavy chain / beta2-microglobulin complex
The experiment in a line: dissociation of I125-labeled beta2-microglobulin from the heavy chain/peptide/beta2-microglobulin complex, HPLC gel filtration. On the technique in general: Size exclusion chromatography separates by hydrodynamic size, large species first.
Take VLQELNVTV (Synthetic peptide, minimum 95% purity) [PR1 (aa 169-177) peptide of proteinase 3]: the T1/2 was 24.3 h.

As for RLFPDFFTRV [PR2 peptide of proteinase 3], the T1/2 came out at 2.33 h.

For a further test, the target named is T1, HLA-A2.1 heavy chain with I125-labeled …. The experiment in a line: I125-beta2-microglobulin dissociation assay.
With LLSYFKQPV [MY3 peptide of myeloperoxidase], the binding result is “binds”. Same read-out and setting: next, KLLLALAGL [MY2 peptide of myeloperoxidase]: “binds”; SLWRRPFNV [MY1 peptide of myeloperoxidase]: “binds”; RLFEQVMRI [MY4 peptide of myeloperoxidase]: “binds”.

As to LIQPFMFRL [MY5 peptide of myeloperoxidase], the binding result was “binds”.

Another test addresses T2, HLA-A2.1 (HLA-A*0201) on the surface of T2 cells (human).
T2 construct: also called HLA-A2 on T2
The experiment in a line: T2 stabilisation assay, flow cytometry.
Take KLNDILLIQL (also called PR71) [PR7I peptide of proteinase 3 (amino acid 115-124, Ile 119 variant)]: the binding result is recorded as “binds”. Still for that read-out and setting: next, KLNDVLLIQL [PR7V peptide of proteinase 3 (amino acid 115-124, Val 119 variant)]: “binds”.

A further test addresses T2, HLA-A2.1 (HLA-A*0201) on the surface of …. Description: T2 stabilisation assay, indirect flow cytometry with BB7.2 (FIG. 34). (Flow cytometry measures light scatter and fluorescence of single cells or particles in a stream.)
Turning to LLSYFKQPV [MY3 peptide of myeloperoxidase], the binding result is “binds”.

With KLLLALAGL [MY2 peptide of myeloperoxidase], the binding result is given as “binds”.

Regarding SLWRRPFNV [MY1 peptide of myeloperoxidase], the binding result was “binds”. Same read-out and setting: under RLFEQVMRI [MY4 peptide of myeloperoxidase] stands “binds”; under LIQPFMFRL [MY5 peptide of myeloperoxidase], “binds”.
